In data set [1] the test system is HeLa Kyoto. The experiment in a line: solubility change mitosis vs G1/S (difference of NP-40 vs SDS log2 ratios) (log2 ratio difference); higher = more soluble in mitosis.
Data set [2] concerns HeLa Kyoto. The experiment in a line: melting temperature (median over replicates), in situ; higher = more thermally stable.
In data set [3] the test system is HeLa Kyoto. Put plainly: solubility in G1/S (NP-40 vs SDS abundance) (log2 ratio); higher = more soluble. The settings on record: cell cycle stage: G1/S.
The subject of data set [4] is HeLa Kyoto. Put plainly: thermal stability score vs G1/S (z-score of summed log2 fold changes over temperatures); higher = more thermally stable than in G1/S.
The mark [5] stands for this setting: cell cycle stage: early G1 (4.5 h after nocodazole release).
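Wherever melting temperature (median over replicates), in situ is given: HeLa Kyoto cells synchronized by double thymidine or nocodazole block, proteins quantified by TMT10plex mass spectrometry, three independent biological replicates.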
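Wherever solubility change mitosis vs G1/S (difference of NP-40 vs SDS log2 ratios) is given: synchronized HeLa Kyoto cells (double thymidine block for G1/S, nocodazole release for mitosis), protein amounts in NP-40 versus SDS lysates quantified by mass spectrometry, three biological replicates.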
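Wherever solubility in G1/S (NP-40 vs SDS abundance) is given: HeLa Kyoto cells arrested at G1/S by double thymidine block, proteins quantified by TMT10plex mass spectrometry in mild NP-40 versus SDS extracts, three biological replicates.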
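Wherever thermal stability score vs G1/S (z-score of summed log2 fold changes over temperatures) is given: synchronized HeLa Kyoto cells, proteins quantified by TMT10plex mass spectrometry, three biological replicates, mitosis taken 0.5 h after nocodazole release, G1/S directly after double thymidine block.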

Chain of PNN (chain, as listed by the source): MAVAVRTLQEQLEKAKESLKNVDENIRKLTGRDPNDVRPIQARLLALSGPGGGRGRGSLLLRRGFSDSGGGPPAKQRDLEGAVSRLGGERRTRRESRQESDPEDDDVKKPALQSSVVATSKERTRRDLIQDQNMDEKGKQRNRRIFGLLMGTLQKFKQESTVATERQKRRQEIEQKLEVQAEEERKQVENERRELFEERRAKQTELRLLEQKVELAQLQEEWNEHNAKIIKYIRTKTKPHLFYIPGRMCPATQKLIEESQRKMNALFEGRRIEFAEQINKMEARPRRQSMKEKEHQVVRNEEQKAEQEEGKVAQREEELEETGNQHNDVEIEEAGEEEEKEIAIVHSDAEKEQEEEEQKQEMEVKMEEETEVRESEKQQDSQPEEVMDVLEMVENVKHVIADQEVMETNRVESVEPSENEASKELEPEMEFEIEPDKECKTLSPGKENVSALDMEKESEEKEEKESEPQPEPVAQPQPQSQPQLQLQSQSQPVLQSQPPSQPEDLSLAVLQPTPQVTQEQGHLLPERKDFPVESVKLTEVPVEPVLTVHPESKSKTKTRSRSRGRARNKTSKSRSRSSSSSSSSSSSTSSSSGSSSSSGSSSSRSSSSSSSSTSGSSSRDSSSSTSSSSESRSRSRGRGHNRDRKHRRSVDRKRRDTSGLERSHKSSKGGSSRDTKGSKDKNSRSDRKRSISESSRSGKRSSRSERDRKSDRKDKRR

As to “MAATAREDGASGQERGQRGCEHYDRGCLLKAPCCDKLYTCRLCHDNNEDHQLDRFKVKEVQCINCEKIQHAQQTCEECSTLFGEYYCDICHLFDKDKKQYHCENCGICRIGPKEDFFHCLKCNLCLAMNLQGRHKCIENVSRQNCPICLEDIHTSRVVAHVLPCGHLLHRTCYEEMLKEGYRCPLCMHSALDMTRYWRQLDDEVAQTPMPSEYQNMTVDILCNDCNGRSTVQFHILGMKCKICESYNTAQAGGRRISLDQQ [RCHY1]”, the “solubility change mitosis (log2)” value in the data set with HeLa Kyoto [1] is -0.374. The melting temperature in the data set on HeLa Kyoto [2] (cell cycle stage: G1/S) was 51.2 °C; in the data set with HeLa Kyoto [2] (cell cycle stage: mitosis), 52.3 °C. In the data set with HeLa Kyoto [3], the “solubility in G1/S (log2)” value stood at 0.146. Also, the thermal stability score is -0.0247 in the data set on HeLa Kyoto [4] (setting [5]) and 0.646 with HeLa Kyoto [4] (cell cycle stage: mitosis).

PLEC: in the data set on HeLa Kyoto [1], the “solubility change mitosis (log2)” value is 0.643. Besides, the melting temperature in the data set with HeLa Kyoto [2] (cell cycle stage: G1/S) worked out at 53.2 °C; with HeLa Kyoto [2] (cell cycle stage: mitosis) it was 52.7 °C. The “solubility in G1/S (log2)” value in the data set on HeLa Kyoto [3] is -2.57. Moreover, the thermal stability score is -8.96 in the data set with HeLa Kyoto [4] (setting [5]) and -8.24 in the data set with HeLa Kyoto [4] (cell cycle stage: mitosis).

With “MSSAPRSPTPRPRRMKKDESFLGKLGGTLARKRRAREVSDLQEEGKNAINSPMSPALVDVHPEDTQLEENEERTMIDPTSKEDPKFKELVKVLLDWINDVLVEERIIVKQLEEDLYDGQVLQKLLEKLAGCKLNVAEVTQSEIGQKQKLQTVLEAVHDLLRPRGWALRWSVDSIHGKNLVAILHLLVSLAMHFRAPIRLPEHVTVQVVVVRKREGLLHSSHISEELTTTTEMMMGRFERDAFDTLFDHAPDKLSVVKKSLITFVNKHLNKLNLEVTELETQFADGVYLVLLMGLLEDYFVPLHHFYLTPESFDQKVHNVSFAFELMLDGGLKKPKARPEDVVNLDLKSTLRVLYNLFTKYKNVE [PARVB]”, the “solubility change mitosis (log2)” value with HeLa Kyoto [1] was -0.137. For the same substance, in the data set with HeLa Kyoto [2] (cell cycle stage: mitosis), the melting temperature came out at 50.4 °C. Further, the “solubility in G1/S (log2)” value with HeLa Kyoto [3] came to 0.0443. Moreover, the thermal stability score came out at 0.418 in the data set on HeLa Kyoto [4] (setting [5]) and 0.496 in the data set on HeLa Kyoto [4] (cell cycle stage: mitosis).

Consider “MDEAVGDLKQALPCVAESPTVHVEVHQRGSSTAKKEDINLSVRKLLNRHNIVFGDYTWTEFDEPFLTRNVQSVSIIDTELKVKDSQPIDLSACTVALHIFQLNEDGPSSENLEEETENIIAANHWVLPAAEFHGLWDSLVYDVEVKSHLLDYVMTTLLFSDKNVNSNLITWNRVVLLHGPPGTGKTSLCKALAQKLTIRLSSRYRYGQLIEINSHSLFSKWFSESGKLVTKMFQKIQDLIDDKDALVFVLIDEVESLTAARNACRAGTEPSDAIRVVNAVLTQIDQIKRHSNVVILTTSNITEKIDVAFVDRADIKQYIGPPSAAAIFKIYLSCLEELMKCQIIYPRQQLLTLRELEMIGFIENNVSKLSLLLNDISRKSEGLSGRVLRKLPFLAHALYVQAPTVTIEGFLQALSLAVDKQFEERKKLAAYI [TRIP13]”, for which the “solubility change mitosis (log2)” value in the data set with HeLa Kyoto [1] is -0.116. In addition, the melting temperature with HeLa Kyoto [2] (cell cycle stage: G1/S) turned out to be 50.9 °C; in the data set with HeLa Kyoto [2] (cell cycle stage: mitosis), 51.3 °C. For the same substance, in the data set on HeLa Kyoto [3], the “solubility in G1/S (log2)” value is -0.0812. Further, the thermal stability score with HeLa Kyoto [4] (setting [5]) was 3.83; with HeLa Kyoto [4] (cell cycle stage: mitosis) it was 2.94.

Regarding PNN, the “solubility change mitosis (log2)” value with HeLa Kyoto [1] is 0.808. For the same substance, the values for the melting temperature with HeLa Kyoto [2] (cell cycle stage: G1/S) and in the data set on HeLa Kyoto [2] (cell cycle stage: mitosis) were 48.6 °C and 50 °C, respectively. Besides, in the data set on HeLa Kyoto [3], the “solubility in G1/S (log2)” value was -1.25. Besides, the results for the thermal stability score with HeLa Kyoto [4] (setting [5]) and in the data set on HeLa Kyoto [4] (cell cycle stage: mitosis) were 0.124 and 3.19, respectively.

As to “MATDWLGSIVSINCGDSLGVYQGRVSAVDQVSQTISLTRPFHNGVKCLVPEVTFRAGDITELKILEIPGPGDNQHFGDLHQTELGPSGAGCQVGINQNGTGKFVKKPASSSSAPQNIPKRTDVKSQDVAVSPQQQQCSKSYVDRHMESLSQSKSFRRRHNSWSSSSRHPNQATPKKSGLKNGQMKNKDDECFGDDIEEIPDTDFDFEGNLALFDKAAVFEEIDTYERRSGTRSRGIPNERPTRYRHDENILESEPIVYRRIIVPHNVSKEFCTDSGLVVPSISYELHKKLLSVAEKHGLTLERRLEMTGVCASQMALTLLGGPNRLNPKNVHQRPTVALLCGPHVKGAQGISCGRHLANHDVQVILFLPNFVKMLESITNELSLFSKTQGQQVSSLKDLPTSPVDLVINCLDCPENVFLRDQPWYKAAVAWANQNRAPVLSIDPPVHEVEQGIDAKWSLALGLPLPLGEHAGRIYLCDIGIPQQVFQEVGINYHSPFGCKFVIPLHSA [EDC3]”, the “solubility change mitosis (log2)” value with HeLa Kyoto [1] is 0.245. The melting temperature worked out at 50.1 °C with HeLa Kyoto [2] (cell cycle stage: G1/S) and 50 °C with HeLa Kyoto [2] (cell cycle stage: mitosis). The “solubility in G1/S (log2)” value in the data set with HeLa Kyoto [3] is -0.0361. Further, the values for the thermal stability score with HeLa Kyoto [4] (setting [5]) and in the data set with HeLa Kyoto [4] (cell cycle stage: mitosis) were 1.79 and 1.47, respectively.

Regarding “MVLLESEQFLTELTRLFQKCRTSGSVYITLKKYDGRTKPIPKKGTVEGFEPADNKCLLRATDGKKKISTVVSSKEVNKFQMAYSNLLRANMDGLKKRDKKNKTKKTKAAAAAAAAAPAAAATAPTTAATTAATAAQ [SRP14]”, the “solubility change mitosis (log2)” value in the data set on HeLa Kyoto [1] worked out at 0.409. Besides, the results for the melting temperature with HeLa Kyoto [2] (cell cycle stage: G1/S) and in the data set on HeLa Kyoto [2] (cell cycle stage: mitosis) were 53.6 °C and 52.6 °C, respectively. Besides, the “solubility in G1/S (log2)” value with HeLa Kyoto [3] was found to be 0.1. Also, the thermal stability score is -2.96 with HeLa Kyoto [4] (setting [5]) and -4.66 in the data set with HeLa Kyoto [4] (cell cycle stage: mitosis).

(Values after the supplement of paper PMC5998384.)
